The target of the test is T1, native GST (UniProt P08515 1-218 = GST).
T1 construct: also called rGST; GST alone
The experiment in a line: pull-down of 35S-labeled rIL-16 on GST-coated glutathione-Sepharose beads, autoradiography (control for non-specific binding). On the procedure: Specificity of the interaction between rIL-16 and D3D4 was assessed by competition with an excess of unlabeled rIL-16. ³⁵S-labeled rIL-16 incubated with GST (lane 1); ³⁵S-labeled rIL-16 incubated with GST-D3D4 (lane 2); ³⁵S-labeled rIL-16 plus excess unlabelled rIL-16 incubated with GST-D3D4 (lane 3); ³⁵S-labeled rIL-16 plus 10 ug/ml peptide A (lane 4); ³⁵S-labeled rIL-16 plus 10 ug/ml peptide B (lane 5); ³⁵S-labeled rIL-16 plus 10 ug/ml peptide C (lane 6); ); ³⁵S-labeled rIL-16 plus 10 ug/ml peptide A and peptide B (lane 7). The arrow indicates the position of IL-16 on the gel. The identity of this band was re-confirmed by immunoblotting with anti-IL-16 antibody.
To investigate IL-16 interaction with the D3D4 of CD4, the GST-D3D4 fusion protein, or GST alone, was bound to the glutathione-conjugated Sepharose 4B beads. Five ul of the in vitro translation product containing ³⁵S-labeled rIL16 was added to 15 ul of the bead-bound proteins in 230 ul of PBS and 50 ul of NETN buffer (150 mM NaCl, 1 mM EDTA, 0.5% NP 40, and 50 mM Tris, pH 8.0). After incubating at 4° C. for 2 h, the beads were washed 3 times in NETN buffer. The GST-D3D4 or GST proteins were released from the beads by boiling in SDS gel loading buffer, and the supernatant was analyzed by 12% SDS-polyacrylamide gel electrophoresis (SDS-PAGE). The presence of ³⁵S-labeled mrIL16 was detected by autoradiography of the dried gel. […]

The source of these data is US20020147151A1 (TRUSTEES OF BOSTON UNIVERSITY, published 2002).

T1 sequence (P08515 whole entry): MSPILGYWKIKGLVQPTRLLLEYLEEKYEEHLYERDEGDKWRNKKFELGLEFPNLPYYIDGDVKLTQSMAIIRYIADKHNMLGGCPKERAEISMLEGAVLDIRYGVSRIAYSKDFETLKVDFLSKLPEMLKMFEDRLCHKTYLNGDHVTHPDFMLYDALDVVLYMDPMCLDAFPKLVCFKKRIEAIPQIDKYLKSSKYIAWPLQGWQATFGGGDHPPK

B1: 35S-labeled murine rIL-16 (in vitro transcription and translation product, C-terminal 119 amino acids) (ligand, mouse, UniProt O54824 1204-1322, looked up)
chain: DSAASASAASDISVESKEATVCTVTLEKTSAGLGFSLEGGKGSLHGDKPLTINRIFKGTEQGEMVQPGDEILQLAGTAVQGLTRFEAWNVIKALPDGPVTIVIRRTSLQCKQTTASADS
modifications: [35S] methionine
notes: domain: C-terminal 119 amino acids; also called radiolabeled murine IL-16; 35S-labeled rIL-16
On to B1, for which the binding result is recorded as “no binding”.
